Assay [1] deals with T1, recombinant Hsp90α (human, UniProt P07900 1-732). Put plainly: FP; ADP.
Assay [2] addresses T1, recombinant Hsp90α. Put plainly: FP; AMPPNP.

B1: Tsc1-D-His6 labeled with Texas Red maleimide (domain or fragment)
chain: DGCSDSMVGHNEEASGHNGETKTPRPSSARGSSGSRGGGGSSSSSSELSTPEKPPHQRAGPFSSRWETTMGEASASIPTTVGSLPSSKSFLGMKARELFRNKSESQCDEDGMTSSLSESLKTELGKDLGVEAKIPLNLDGPHPSPPTPDSVGQLHIMDYNETHHEHS
modifications: Texas Red C2 maleimide label, 0.8 labels/Tsc1-D
In the case of B1, the Kd (usually the equilibrium constant for the complex coming apart) in assay [1] turned out to be 810 nM; in assay [2] it was 240 nM.

(Values after paper PMC5730846 (2017).)
